Starred links: 1 amine or outer side, 2 acyl side, 3 side chain; linkers in the order of their positions; H or OH if unused. Positions of bridges follow the written chain, without caps; N, C: chain ends. Non-standard residues stand in square brackets, D forms with d. No end group written: not given here. BCN = bicyclo[6.1.0]non-4-yn-9-ylmethyl carbonate as carbamate, click handle; TATA = O=C(CC[*:1])N1CN(C(=O)CC[*:2])CN(C(=O)CC[*:3])C1; tBuAla = CC(C)(C)C[C@H](N)C(=O)O; Nle = CCCC[C@H](N)C(=O)O; PYA = propargyl-acid
target: T1, Recombinant human CD137 (R&D systems), biotinylated (human, UniProt Q07011 24-186, biotinylated with EZ-Link Sulfo-NHS-LC-LC-Biotin); assay: SPR (Biacore), biotinylated human CD137 captured on streptavidin chip, peptide as analyte, 25°C
T1 construct: Bought protein; Captured on a streptavidin chip; also called human CD137 protein; 4-1BB
Method: (§1) Biacore experiments were performed to determine kₐ (M⁻¹s⁻¹), kd (s⁻¹), KD (nM) values of monomeric peptides binding to human CD137 protein. […] The protein was desalted to remove uncoupled biotin using spin columns into PBS.
(§2) For analysis of peptide binding, a Biacore T200 or a Biacore 3000 instrument was used with a XanTec CMD500D chip. Streptavidin was immobilized on the chip using standard amine-coupling chemistry at 25° C. with HBS-N(10 mM HEPES, 0.15 M NaCl, pH 7.4) as the running buffer. Briefly, the carboxymethyl dextran surface was activated with a 7 min injection of a 1:1 ratio of 0.4 M 1-ethyl-3-(3-dimethylaminopropyl) carbodiimide hydrochloride (EDC)/0.1 M N-hydroxy succinimide (NHS) at a flow rate of 10 μl/min. For capture of streptavidin, the protein was diluted to 0.2 mg/ml in 10 mM sodium acetate (pH 4.5) and captured by injecting 120 μl of onto the activated chip surface. Residual activated groups were blocked with a 7 min injection of 1 M ethanolamine (pH 8.5) and biotinylated CD137 captured to a level of 270-1500 RU. Buffer was changed to PBS/0.05% Tween 20 and a dilution series of the peptides was prepared in this buffer with a final DMSO concentration of 0.5%. The top peptide concentration was 500 nM with 6 further 2-fold or 3-fold dilutions. The SPR analysis was run at 25° C. at a flow rate of 90 μl/min with 60 seconds association and 900 seconds dissociation. After each cycle a regeneration step (10 μl of 10 mM glycine pH 2) was employed. Data were corrected for DMSO excluded volume effects as needed. All data were double-referenced for blank injections and reference surface using standard processing procedures and data processing and kinetic fitting were performed using Scrubber software, version 2.0c (BioLogic Software). Data were fitted using simple 1:1 binding model allowing for mass transport effects where appropriate.

T1 sequence (Q07011 24-186 limits assumed): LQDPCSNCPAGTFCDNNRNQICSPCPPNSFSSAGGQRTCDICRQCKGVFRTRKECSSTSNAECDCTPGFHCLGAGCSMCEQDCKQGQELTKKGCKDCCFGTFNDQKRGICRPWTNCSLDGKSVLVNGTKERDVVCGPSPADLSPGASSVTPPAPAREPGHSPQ

Binder	Kd
Ac-C[tBuAla]PK(PYA)[dA]PYCFADPY[Nle]CA (linker 1-8-15 via TATA, Bicyclic peptide monomer; also called Monomer 11A) [BCY8927]	12.3 nM
XACIEEGQYCFADPYXCA ((BCN)-A-CiIEEGQYCiiFADPY(Nle)Ciii-A; Ci, Cii, Ciii cyclised on TATA, Bicyclic peptide monomer; also called Monomer 1-BCN) [BCY8141]	57.8 nM
Ac-ACIEEGQYCK(PYA)ADPY[Nle]CA (linker 2-9-16 via TATA, Bicyclic peptide monomer; also called Monomer 7A) [BCY7746]	260 nM
Ac-ACIEEGQYCFADK(PYA)Y[Nle]CA (linker 2-9-16 via TATA, Bicyclic peptide monomer; also called Monomer 8A) [BCY7747]	361 nM
Ac-ACIEK(BCN)GQYCFADPY[Nle]CA (linker 2-9-16 via TATA, Bicyclic peptide monomer; also called Monomer 4-BCN) [BCY8142]	321 nM
Ac-C[tBuAla]PE[dK](PYA)PYCFADPY[Nle]CA (linker 1-8-15 via TATA, also called Monomer 12A) [BCY8928]	11.4 nM
Ac-ACIEEGK(PYA)YCFADPY[Nle]CA (linker 2-9-16 via TATA, Bicyclic peptide monomer; also called Monomer 6A) [BCY7745]	63.1 nM
XACIEEGQYCFADPYXCA ((PYA)-A-CiIEEGQYCiiFADPY(Nle)Ciii-A; Ci, Cii, Ciii cyclised on TATA, Bicyclic peptide monomer; also called Monomer 1A) [BCY7740]	88 nM
ACIEEGQYCFADPYXCA (Ac-A-CiIEEGQYCiiFADPYK(PYA)Ciii-A; Ci, Cii, Ciii cyclised on TATA, Bicyclic peptide monomer; also called Monomer 9A) [BCY7748]	264 nM
ACIEEGQYCFADPYXCX (Ac-A-CiIEEGQYCiiFADPY(Nle)Ciii-Dap(PYA); Ci, Cii, Ciii cyclised on TATA, Bicyclic peptide monomer; also called Monomer 2A) [BCY7741]	122 nM
Ac-ACIEK(PYA)GQYCFADPY[Nle]CA (linker 2-9-16 via TATA, Bicyclic peptide monomer; also called Monomer 4A) [BCY7743]	101 nM
Ac-ACIEEGQYCK(BCN)ADPY[Nle]CA (linker 2-9-16 via TATA, Bicyclic peptide monomer; also called Monomer 7-BCN) [BCY8144]	66.7 nM
ACIEEGQYCFADPYXCA (Ac-A-CiIEEGQYCiiFADPYK(BCN)Ciii-A; Ci, Cii, Ciii cyclised on TATA, Bicyclic peptide monomer; also called Monomer 9-BCN) [BCY8097]	99.4 nM
Ac-ACIEEGK(BCN)YCFADPY[Nle]CA (linker 2-9-16 via TATA, Bicyclic peptide monomer; also called Monomer 6-BCN) [BCY8143]	112 nM

target: T1, Recombinant human CD137 (R&D systems), …; assay: SPR (Biacore), biotinylated human CD137 captured on streptavidin chip

Binder	binding result
Ac-ACIEK(PYA)GQYCF[dA]DPY[Nle]CA (linker 2-9-16 via TATA, Bicyclic peptide monomer; also called Monomer 14A) [BCY8926]	no binding (tested: No binding up to 5 µM)
Ac-ACIE[dK](PYA)GQYCF[dA]DPY[Nle]CA (linker 2-9-16 via TATA, Bicyclic peptide monomer; also called Monomer 13A) [BCY8925]	no binding (tested: No binding up to 5 µM)
XACIEEGQYCFXDPYXCA ((PYA)-A-CiIEEGQYCiiF[D-A]DPY[Nle]Ciii-A; Ci, Cii, Ciii cyclised on TATA, Bicyclic peptide monomer; also called Monomer 10A) [BCY8935]	no binding (tested: No binding up to 5 µM)

target: T2, CD137 on Jurkat reporter cells (Promega) (UniProt Q07011 24-255, limits assumed); assay: cell-based or functional assay
T2 sequence (Q07011 24-255 limits assumed): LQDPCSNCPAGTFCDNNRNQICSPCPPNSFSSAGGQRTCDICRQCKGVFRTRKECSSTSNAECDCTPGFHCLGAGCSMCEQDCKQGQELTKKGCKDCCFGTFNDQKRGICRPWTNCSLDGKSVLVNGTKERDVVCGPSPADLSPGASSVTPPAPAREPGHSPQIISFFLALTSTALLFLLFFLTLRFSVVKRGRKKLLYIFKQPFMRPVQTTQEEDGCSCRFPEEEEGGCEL

Binder	Fold Induction over Background	Average Fold EC50 Improvement relative to CD137L	Average Relative Fold Induction relative to CD137L
Ac-ACIEK(PYA)GQYCF[dA]DPY[Nle]CA (linker 2-9-16 via TATA; not fully specified) [BCY8937]	< 2 fold		
Ac-ACIEK(BCN)GQYCFADPY[Nle]CA (linker 2-9-16 via TATA; not fully specified; also: tetramer of four peptide units on central hinge A (TET) via spacer S1A n=10) [BCY8150]		4.14 fold	0.77 fold
XACIEEGQYCFADPYXCA (not fully specified; (PYA)-A-CiIEEGQYCiiF[D-A]DPY[Nle]Ciii-A; Cys on TATA scaffold) [BCY8583]		0.031 fold	3.14 fold
XACIEEGQYCFADPYXCA (not fully specified; (PYA)-A-CiIEEGQYCiiF[D-A]DPY[Nle]Ciii-A; Cys on TATA scaffold) [BCY8584]	< 2 fold		
XACIEEGQYCFADPYXCA (not fully specified; (PYA)-A-CiIEEGQYCiiF[D-A]DPY[Nle]Ciii-A; Cys on TATA scaffold) [BCY8582]	< 2 fold		
XACIEEGQYCFADPYXCA (not fully specified; (PYA)-A-CiIEEGQYCiiF[D-A]DPY[Nle]Ciii-A; Cys on TATA scaffold) [BCY8581]	< 2 fold		
XACIEEGQYCFADPYXCA (not fully specified; (BCN)-A-CiIEEGQYCiiFADPY(Nle)Ciii-A; Cys on TATA scaffold) [BCY8149]		140 fold	0.93 fold
Ac-ACIEEGK(BCN)YCFADPY[Nle]CA (linker 2-9-16 via TATA; not fully specified; also: trimer of three peptide units on central hinge B (TCA) via spacer S1A n=10) [BCY8151]		213 fold	0.49 fold

target: T1, Recombinant human CD137 (R&D systems), …; assay: SPR (Biacore), biotinylated human CD137 captured on streptavidin chip, peptide as analyte, 25°C; BCY8095 (Monomer 3-BCN), a separate monomer number from BCY7742
Method: as §1
as §2, with “After each cycle a regeneration step (10 μl of 10 mM glycine pH 2) was employed. Data were corrected for DMSO excluded volume effects as needed. All data were double-referenced for blank injections and reference surface using standard processing procedures and data processing and kinetic fitting were performed using Scrubber software, version 2.0c (BioLogic Software). Data were fitted using simple 1:1 binding model allowing for mass transport effects where appropriate.” left out

Binder	Kd
Ac-ACIK(BCN)EGQYCFADPY[Nle]CA (linker 2-9-16 via TATA, Bicyclic peptide monomer; also called Monomer 3-BCN) [BCY8095]	0.685 nM

target: T2, CD137 on Jurkat reporter cells (Promega); assay: cell-based or functional assay; remark: another data set of the same source

Binder	Fold Induction over Background	Average EC50	Average fold induction	Average Fold EC50 Improvement relative to BCY7845	Average Relative Fold Induction relative to BCY7845
Ac-ACIEK(PYA)GQYCFADPY[Nle]CA (linker 2-9-16 via TATA; not fully specified) [BCY8959]	< 2 fold				
Ac-C[tBuAla]PE[dK](PYA)PYCFADPY[Nle]CA (linker 1-8-15 via TATA; not fully specified) [BCY8948]	< 2 fold				
Ac-ACIEK(PYA)GQYCFADPY[Nle]CA (linker 2-9-16 via TATA; not fully specified) [BCY8961]	< 2 fold				
Ac-ACIEK(PYA)GQYCFADPY[Nle]CA (linker 2-9-16 via TATA; not fully specified) [BCY8962]	< 2 fold				
Ac-ACIEK(PYA)GQYCF[dA]DPY[Nle]CA (linker 2-9-16 via TATA; not fully specified) [BCY9113]	< 2 fold				
Ac-ACIEK(PYA)GQYCFADPY[Nle]CA (linker 2-9-16 via TATA; not fully specified) [BCY8965]	< 2 fold				
Ac-ACIEK(PYA)GQYCFADPY[Nle]CA (linker 2-9-16 via TATA; not fully specified) [BCY8957]	< 2 fold				
Ac-ACIEEGK(PYA)YCFADPY[Nle]CA (linker 2-9-16 via TATA; not fully specified; also: tetramer of four peptide units on central hinge A (TET) via spacer S1A n=10) [BCY7845]		0.57 nM	6.3 fold		
Ac-C[tBuAla]PE[dK](PYA)PYCFADPY[Nle]CA (linker 1-8-15 via TATA; not fully specified) [BCY8947]				1.33 fold	0.62 fold

Reference: patent publication US20230220008A1 (Bicycle, published 2023)
